The numbers were not newly measured in article PMC8820802, which cites them from elsewhere.

By Kd is commonly meant the concentration at which binding is half-saturated.

In the data set the test system is streptavidin. As to conditions: 50 mM Tris-HCl pH 7.6, 10 mM MgCl2, 100 mM KCl, 10% glycerol, 0.05% NP-40, protease inhibitor; HEK293T lysate on streptavidin-Sepharose, 16 h, 4 C.

On to S1m aptamer, for which the Kd was 29 nM. Take S1 aptamer: the Kd was 79 nM.
